Laboratory results published in article PMC3847938, “Biochemical and kinetic characterisation of a novel xylooligosaccharide-upregulated GH43 β-D-xylosidase/α-L-arabinofuranosidase (BXA43) from the probiotic Bifidobacterium animalis subsp. lactis BB-12” (AMB Express, 2013).

T1: BXA43 (Bifidobacterium animalis, UniProt B8DTK7)
T1 construct: gene xynB; full-length ORF 541 residues, C-terminal His-tag, pET24(+), E. coli BL21(DE3); theoretical mass 61,774 Da, about 62 kDa on SDS-PAGE
T1 sequence (B8DTK7 1-541): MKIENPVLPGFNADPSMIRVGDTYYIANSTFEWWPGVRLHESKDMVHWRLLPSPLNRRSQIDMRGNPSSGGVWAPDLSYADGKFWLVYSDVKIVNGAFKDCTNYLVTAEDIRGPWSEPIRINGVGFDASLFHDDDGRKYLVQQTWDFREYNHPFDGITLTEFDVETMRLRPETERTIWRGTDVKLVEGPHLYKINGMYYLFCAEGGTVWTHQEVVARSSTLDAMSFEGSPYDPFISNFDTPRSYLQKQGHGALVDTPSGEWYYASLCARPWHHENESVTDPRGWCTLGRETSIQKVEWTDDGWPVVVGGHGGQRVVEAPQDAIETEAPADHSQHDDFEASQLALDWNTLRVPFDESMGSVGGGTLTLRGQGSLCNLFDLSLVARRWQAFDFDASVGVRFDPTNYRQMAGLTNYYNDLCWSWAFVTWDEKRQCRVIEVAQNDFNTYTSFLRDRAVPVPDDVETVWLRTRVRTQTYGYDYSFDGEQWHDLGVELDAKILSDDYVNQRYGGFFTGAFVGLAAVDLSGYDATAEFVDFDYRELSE

B1: BXA43 (Bifidobacterium animalis subsp. lactis AD011) (protein)
chain: MKIENPVLPGFNADPSMIRVGDTYYIANSTFEWWPGVRLHESKDMVHWRLLPSPLNRRSQIDMRGNPSSGGVWAPDLSYADGKFWLVYSDVKIVNGAFKDCTNYLVTAEDIRGPWSEPIRINGVGFDASLFHDDDGRKYLVQQTWDFREYNHPFDGITLTEFDVETMRLRPETERTIWRGTDVKLVEGPHLYKINGMYYLFCAEGGTVWTHQEVVARSSTLDAMSFEGSPYDPFISNFDTPRSYLQKQGHGALVDTPSGEWYYASLCARPWHHENESVTDPRGWCTLGRETSIQKVEWTDDGWPVVVGGHGGQRVVEAPQDAIETEAPADHSQHDDFEASQLALDWNTLRVPFDESMGSVGGGTLTLRGQGSLCNLFDLSLVARRWQAFDFDASVGVRFDPTNYRQMAGLTNYYNDLCWSWAFVTWDEKRQCRVIEVAQNDFNTYTSFLRDRAVPVPDDVETVWLRTRVRTQTYGYDYSFDGEQWHDLGVELDAKILSDDYVNQRYGGFFTGAFVGLAAVDLSGYDATAEFVDFDYRELSE
notes: full-length ORF 541 residues, C-terminal His-tag, pET24(+), E. coli BL21(DE3); theoretical mass 61,774 Da, about 62 kDa on SDS-PAGE

Tests used:
BXA43 = biological target: T1, BXA43; assay: p-nitrophenol release at […] nm, initial rates, fit with substrate inhibition; type: biochemical; conditions: 50 mM Na-acetate pH 5.2, 40 °C; substrate inhibition by pNPX itself (uncompetitive), second site
purified protein = substrate: O=[N+]([O-])c1ccc(O[C@@H]2OC[C@@H](O)[C@H](O)[C@H]2O)cc1; assay: purified protein; type: biochemical, Bifidobacterium animalis; conditions: 50 mM Na-acetate pH 5.2, 40 °C, 0.25–80 mM pNPX, 7.8 nM enzyme, error printed as ± 4.6

| Molecule | Ki (BXA43) [mM] | Km (purified protein) [mM] | kcat (purified protein) [s⁻¹] |
| --- | --- | --- | --- |
| O=[N+]([O-])c1ccc(O[C@@H]2OC[C@@H](O)[C@H](O)[C@H]2O)cc1 [para-nitrophenyl-β-D-xylopyranoside] | 29.6 ± 8.5 |  |  |
| B1 |  | 15.6 ± 4.2 | 60.6 ± 10.8 |
